# Source: patent US20050113284A1, “Drug for regenerating tissue and vessel and method therefor” (priority 2001, published 2005)
# Biological target: mouse HGF receptor c-Met (endogenous in mouse hepatocytes and liver) (mouse) (UniProt P16056)
# Assay: cell-based or functional assay
substance,measurement,value
full-length mouse MERMUC overexpressed in MERMUC-Tg mice (from UniProt Q8BUE7 22-656),ratio of liver weight to body weight after transient overexpression of human HGF,1.2 times
